Results from publication PMC3510454, “Elba, a novel developmentally regulated chromatin boundary factor is a hetero-tripartite DNA binding complex”.

T1: Elba1;Elba2;Elba3 (Drosophila melanogaster?;Drosophila …, UniProt Q9VR17;Q9VQD6;Q9VR19 1-363;1-381;1-379, ||)
T1 sequence 1: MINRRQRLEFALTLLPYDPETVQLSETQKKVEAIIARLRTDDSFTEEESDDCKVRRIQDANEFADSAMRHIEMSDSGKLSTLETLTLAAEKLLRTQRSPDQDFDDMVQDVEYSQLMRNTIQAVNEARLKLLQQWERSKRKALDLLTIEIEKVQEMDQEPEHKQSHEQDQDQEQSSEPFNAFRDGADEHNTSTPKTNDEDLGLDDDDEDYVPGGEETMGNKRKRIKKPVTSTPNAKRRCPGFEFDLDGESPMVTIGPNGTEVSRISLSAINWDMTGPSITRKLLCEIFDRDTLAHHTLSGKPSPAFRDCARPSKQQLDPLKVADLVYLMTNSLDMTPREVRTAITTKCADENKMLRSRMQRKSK
T1 sequence 2: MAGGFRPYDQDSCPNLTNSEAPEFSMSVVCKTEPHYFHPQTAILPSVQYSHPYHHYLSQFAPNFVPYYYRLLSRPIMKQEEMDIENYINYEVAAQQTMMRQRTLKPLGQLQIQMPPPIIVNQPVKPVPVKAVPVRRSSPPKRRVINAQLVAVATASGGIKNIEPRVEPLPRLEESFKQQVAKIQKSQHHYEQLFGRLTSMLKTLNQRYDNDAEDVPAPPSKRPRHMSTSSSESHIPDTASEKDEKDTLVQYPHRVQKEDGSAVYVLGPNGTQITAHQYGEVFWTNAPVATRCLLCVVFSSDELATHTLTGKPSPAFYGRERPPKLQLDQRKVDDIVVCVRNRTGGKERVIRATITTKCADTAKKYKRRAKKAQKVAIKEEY
T1 sequence 3: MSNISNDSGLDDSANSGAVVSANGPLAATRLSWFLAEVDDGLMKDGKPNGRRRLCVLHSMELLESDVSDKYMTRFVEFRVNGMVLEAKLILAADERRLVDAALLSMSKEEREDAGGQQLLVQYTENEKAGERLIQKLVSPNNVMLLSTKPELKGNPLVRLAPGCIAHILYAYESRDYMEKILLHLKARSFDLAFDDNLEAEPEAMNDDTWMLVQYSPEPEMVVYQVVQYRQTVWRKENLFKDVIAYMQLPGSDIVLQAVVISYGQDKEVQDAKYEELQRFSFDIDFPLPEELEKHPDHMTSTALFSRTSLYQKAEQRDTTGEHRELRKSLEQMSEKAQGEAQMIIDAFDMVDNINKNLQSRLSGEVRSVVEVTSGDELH

T2: GST-Elba1F;GST-Elba2F;FLAG-Elba3F (Drosophila melanogaster?;Drosophila …, UniProt Q9VR17;Q9VQD6;Q9VR19 1-363;1-381;1-379, ||)
T2 sequence 1: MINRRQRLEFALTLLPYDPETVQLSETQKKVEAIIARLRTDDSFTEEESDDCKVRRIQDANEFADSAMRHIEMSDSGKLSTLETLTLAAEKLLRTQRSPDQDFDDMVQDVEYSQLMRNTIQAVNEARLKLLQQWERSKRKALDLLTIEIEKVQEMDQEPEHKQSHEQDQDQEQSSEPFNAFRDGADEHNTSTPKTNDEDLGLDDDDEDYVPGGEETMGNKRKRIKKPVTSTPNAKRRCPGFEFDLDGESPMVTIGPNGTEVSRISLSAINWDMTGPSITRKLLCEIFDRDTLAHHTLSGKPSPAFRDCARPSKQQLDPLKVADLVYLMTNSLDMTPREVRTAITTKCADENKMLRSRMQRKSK
T2 sequence 2: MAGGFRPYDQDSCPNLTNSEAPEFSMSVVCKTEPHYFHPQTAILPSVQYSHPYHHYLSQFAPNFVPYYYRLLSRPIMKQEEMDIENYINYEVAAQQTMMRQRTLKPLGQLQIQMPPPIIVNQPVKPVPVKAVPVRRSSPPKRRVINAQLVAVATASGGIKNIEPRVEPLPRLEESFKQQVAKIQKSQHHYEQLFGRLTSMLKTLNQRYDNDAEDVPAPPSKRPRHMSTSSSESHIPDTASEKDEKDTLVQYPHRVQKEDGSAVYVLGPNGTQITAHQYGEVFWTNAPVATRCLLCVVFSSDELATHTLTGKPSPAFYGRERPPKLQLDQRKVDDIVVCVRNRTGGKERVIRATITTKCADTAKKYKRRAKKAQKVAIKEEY
T2 sequence 3: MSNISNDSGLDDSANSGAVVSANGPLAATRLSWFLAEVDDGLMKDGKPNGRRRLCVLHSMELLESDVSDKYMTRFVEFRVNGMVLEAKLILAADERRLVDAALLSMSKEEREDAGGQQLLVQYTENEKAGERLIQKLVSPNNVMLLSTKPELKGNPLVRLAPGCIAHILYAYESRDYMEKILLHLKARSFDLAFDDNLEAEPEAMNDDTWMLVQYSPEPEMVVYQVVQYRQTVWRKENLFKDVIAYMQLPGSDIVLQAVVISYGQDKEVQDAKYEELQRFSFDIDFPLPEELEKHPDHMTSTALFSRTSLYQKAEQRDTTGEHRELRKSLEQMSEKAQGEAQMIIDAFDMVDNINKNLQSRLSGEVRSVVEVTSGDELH

T3: GST-Elba1 BEN;GST-Elba2 BEN (Drosophila melanogaster?;Drosophila …, UniProt Q9VR17;Q9VQD6 255-363;268-381, |)
T3 sequence 1: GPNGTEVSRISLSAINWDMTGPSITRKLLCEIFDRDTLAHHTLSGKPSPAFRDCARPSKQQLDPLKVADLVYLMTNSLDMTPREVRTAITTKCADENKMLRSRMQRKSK
T3 sequence 2: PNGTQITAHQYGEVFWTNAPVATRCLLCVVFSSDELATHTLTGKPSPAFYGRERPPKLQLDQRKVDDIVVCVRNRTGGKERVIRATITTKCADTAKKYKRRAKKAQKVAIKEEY

T4: FLAG-Elba1F;FLAG-Elba2F;FLAG-Elba3F (Drosophila melanogaster?;Drosophila …, UniProt Q9VR17;Q9VQD6;Q9VR19 1-363;1-381;1-379, ||)
T4 sequence 1: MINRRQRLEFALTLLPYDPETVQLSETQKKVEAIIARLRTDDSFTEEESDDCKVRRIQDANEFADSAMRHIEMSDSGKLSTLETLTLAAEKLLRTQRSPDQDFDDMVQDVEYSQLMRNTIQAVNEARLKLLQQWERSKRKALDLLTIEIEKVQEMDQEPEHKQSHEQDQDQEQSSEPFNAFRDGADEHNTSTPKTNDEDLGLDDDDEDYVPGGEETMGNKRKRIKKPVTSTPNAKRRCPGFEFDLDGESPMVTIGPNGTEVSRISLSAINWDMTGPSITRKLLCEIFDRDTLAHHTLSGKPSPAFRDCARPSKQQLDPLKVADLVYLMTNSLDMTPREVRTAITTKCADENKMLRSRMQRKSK
T4 sequence 2: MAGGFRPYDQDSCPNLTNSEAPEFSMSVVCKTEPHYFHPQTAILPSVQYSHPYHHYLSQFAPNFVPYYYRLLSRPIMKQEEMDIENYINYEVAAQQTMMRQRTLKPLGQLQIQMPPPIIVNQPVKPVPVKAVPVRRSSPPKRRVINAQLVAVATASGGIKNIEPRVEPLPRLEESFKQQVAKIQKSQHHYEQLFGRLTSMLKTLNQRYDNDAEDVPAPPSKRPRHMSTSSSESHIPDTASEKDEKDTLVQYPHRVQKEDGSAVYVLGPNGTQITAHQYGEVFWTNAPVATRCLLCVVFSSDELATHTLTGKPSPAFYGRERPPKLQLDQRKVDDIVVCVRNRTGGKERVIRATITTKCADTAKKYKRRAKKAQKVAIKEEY
T4 sequence 3: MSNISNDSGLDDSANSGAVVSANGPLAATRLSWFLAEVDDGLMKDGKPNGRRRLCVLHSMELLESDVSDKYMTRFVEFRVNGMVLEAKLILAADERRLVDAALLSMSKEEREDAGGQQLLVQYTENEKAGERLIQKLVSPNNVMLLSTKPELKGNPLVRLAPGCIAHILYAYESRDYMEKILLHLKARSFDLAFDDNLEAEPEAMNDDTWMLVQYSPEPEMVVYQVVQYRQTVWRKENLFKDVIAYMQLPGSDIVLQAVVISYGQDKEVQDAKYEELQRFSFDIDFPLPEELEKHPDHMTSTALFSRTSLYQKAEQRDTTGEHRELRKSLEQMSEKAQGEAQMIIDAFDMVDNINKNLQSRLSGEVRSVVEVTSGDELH

T5: GST-Elba1F;GST-Elba2F (Drosophila melanogaster?;Drosophila …, UniProt Q9VR17;Q9VQD6 1-363;1-381, |)
T5 sequence 1: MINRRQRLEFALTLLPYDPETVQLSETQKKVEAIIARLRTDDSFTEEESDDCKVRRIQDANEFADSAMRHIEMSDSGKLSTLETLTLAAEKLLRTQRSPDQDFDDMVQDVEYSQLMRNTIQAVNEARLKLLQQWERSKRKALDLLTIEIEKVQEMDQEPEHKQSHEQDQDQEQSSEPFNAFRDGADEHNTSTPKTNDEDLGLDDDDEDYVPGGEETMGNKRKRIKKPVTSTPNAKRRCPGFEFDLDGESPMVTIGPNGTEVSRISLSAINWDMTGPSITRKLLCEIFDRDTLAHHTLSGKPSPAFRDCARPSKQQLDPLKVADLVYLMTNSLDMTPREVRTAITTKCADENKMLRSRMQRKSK
T5 sequence 2: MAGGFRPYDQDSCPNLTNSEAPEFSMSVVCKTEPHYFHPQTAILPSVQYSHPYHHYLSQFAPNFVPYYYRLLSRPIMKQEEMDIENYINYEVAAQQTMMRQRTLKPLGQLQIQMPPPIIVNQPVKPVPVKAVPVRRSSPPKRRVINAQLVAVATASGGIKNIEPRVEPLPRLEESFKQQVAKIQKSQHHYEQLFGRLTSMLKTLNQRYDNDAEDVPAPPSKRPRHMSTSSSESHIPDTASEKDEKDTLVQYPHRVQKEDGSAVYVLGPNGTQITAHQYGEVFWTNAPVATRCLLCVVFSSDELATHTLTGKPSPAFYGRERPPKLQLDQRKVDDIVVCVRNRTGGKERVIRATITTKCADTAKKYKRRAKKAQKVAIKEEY


Assays:
Elba1;Elba2;Elba3 [1] = biological target: T1, Elba1;Elba2;Elba3; assay: competition; 100-fold excess; EMSA: ~0.1 M KCl, 12.5-250 ug/ml poly(dI-dC):poly(dI-dC), 1/2 hr at room temperature, 4% acrylamide gel, otherwise as Aoki et al. 2008; affinity beads: HBB (10); conditions: protein: ivt;ivt;ivt; tags: none;none;none; copies: 1;1;1; label: none
[2] = biological target: T2, GST-Elba1F;GST-Elba2F;FLAG-Elba3F; assay: EMSA; supershift by Elba3; EMSA: ~0.1 M KCl, 12.5-250 ug/ml poly(dI-dC):poly(dI-dC), 1/2 hr at room temperature, 4% acrylamide gel, otherwise as Aoki et al. 2008; affinity beads: HBB (10); conditions: protein: ivt;ivt;ivt; tags: N-terminal FLAG and GST;N-terminal FLAG and GST;N-terminal FLAG; copies: 1;1;1
[3] = biological target: T3, GST-Elba1 BEN;GST-Elba2 BEN; assay: EMSA; EMSA: ~0.1 M KCl, 12.5-250 ug/ml poly(dI-dC):poly(dI-dC), 1/2 hr at room temperature, 4% acrylamide gel, otherwise as Aoki et al. 2008; affinity beads: HBB (10); conditions: protein: ivt;ivt; tags: N-terminal FLAG and GST;N-terminal FLAG and GST; copies: 1;1
Elba1;Elba2;Elba3 [4] = biological target: T1, Elba1;Elba2;Elba3; assay: as above; conditions: protein: ivt;ivt;ivt; tags: none;none;none; copies: 1;1;1
[5] = biological target: T4, FLAG-Elba1F;FLAG-Elba2F;FLAG-Elba3F; assay: as above; conditions: protein: ivt;ivt;ivt; tags: N-terminal FLAG;N-terminal FLAG;N-terminal FLAG; copies: 1;1;1
GST-Elba1F;GST-Elba2F = biological target: T5, GST-Elba1F;GST-Elba2F; assay: EMSA; co-translated; EMSA: ~0.1 M KCl, 12.5-250 ug/ml poly(dI-dC):poly(dI-dC), 1/2 hr at room temperature, 4% acrylamide gel, otherwise as Aoki et al. 2008; affinity beads: HBB (10); conditions: protein: ivt;ivt; tags: N-terminal FLAG and GST;N-terminal FLAG and GST; copies: 1;1

Binder	binding result (Elba1;Elba2;Elba3 [1])	binding result [2]	binding result [3]	binding result (Elba1;Elba2;Elba3 [4])	binding result [5]	binding result (GST-Elba1F;GST-Elba2F)
M6 oligo (dsDNA, 3-bp substitution) DNA 1: TGCAGCGCCCAATAAGCAAATGTACGC DNA 2: GCGTACATTTGCTTATTGGGCGCTGCA	binds					
Elba probe 27 bp (WT) (dsDNA) DNA 1: TGCAGCGCCCAATAAGCAAATGGCAGC DNA 2: GCTGCCATTTGCTTATTGGGCGCTGCA		binds	no binding	binds	binds	binds
